Laboratory results reported in publication PMC11524475.

Target: NbNRC2-6xHis-3xFLAG, affinity-purified from N. benthamiana leaves (Nicotiana benthamiana)
Experiment: SEC; purified NbNRC2-6xHis-3xFLAG on Superdex 200 Increase 10/300 GL, 25 mM Tris-HCl pH 8, 500 mM NaCl, 5% glycerol, 1 mM EDTA, 4°C; size estimated from a protein standard curve

- stoichiometry N: 2
Substance: NbNRC2-6xHis-3xFLAG, affinity-purified from N. benthamiana leaves (natural protein)
